Results taken from patent US20240368285A1 (HEFEI TG IMMUNOPHARMA, published 2024).

How the values were obtained:
[1] = biological target: T1, MICA on human tumor cells (A-375, A549, HCT-15, MDA-MB-231) (human, UniProt Q29983 24-383); assay: flow cytometry on A-375 cells, Alexa-647 goat anti-human secondary, % binding ratio
T1 construct: whole, on cells
T1 sequence (looked up): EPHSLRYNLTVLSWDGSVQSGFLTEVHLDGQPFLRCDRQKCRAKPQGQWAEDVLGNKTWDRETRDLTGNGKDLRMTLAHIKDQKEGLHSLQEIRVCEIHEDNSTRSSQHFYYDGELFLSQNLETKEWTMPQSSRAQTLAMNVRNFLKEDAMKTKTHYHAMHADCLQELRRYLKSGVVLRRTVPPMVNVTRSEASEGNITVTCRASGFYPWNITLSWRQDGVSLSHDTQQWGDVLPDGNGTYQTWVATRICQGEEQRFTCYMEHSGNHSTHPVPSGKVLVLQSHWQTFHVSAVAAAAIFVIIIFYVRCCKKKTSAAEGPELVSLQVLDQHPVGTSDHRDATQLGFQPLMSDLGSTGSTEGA
Experimental: (§1) (2) Tumor cells were diluted to a density of 2×10⁶/mL with PBS and added into a 1.5 ml EP tube in a volume of 100 l/tube. 10 l/tube of goat serum was added into the EP tube; and blocking was conducted at 4° C. for 30 min. […] The tube was incubated at 4° C. for 30 min. 1 mL of PBS was added into the EP tube, and centrifugation was conducted 4° C. at a rate of 3,500 rpm for 5 min. The supernatant was removed. Then, the EP tube was washed once with the PBS, and the supernatant was removed after centrifugation. The cells were resuspended with PBS in a volume of 100 l/tube. An Alexa-647 labeled goat anti-human secondary antibody (purchased from Jackson lab) was added into the tube in a volume of 1 l/tube, and the tube was incubated in the dark at 4° C. for 30 min. The tube was washed twice with PBS, and the supernatant was removed after centrifugation. The cells were resuspended with the PBS in a volume of 200 l/tube, and detection was conducted by a flow cytometer. The results are as shown in FIG. 17A and FIG. 17B, FIG. 18A and FIG. 18B, FIG. 19A and FIG. 19B, and FIG. 20A and FIG. 20B.

[2] = biological target: T1, MICA on human tumor cells (A-375, A549, …); assay: flow cytometry on HCT-15 cells, Alexa-647 goat anti-human secondary, % binding ratio
Experimental: as §1

[3] = biological target: T1, MICA on human tumor cells (A-375, A549, …); assay: flow cytometry on MDA-MB-231 cells, Alexa-647 goat anti-human secondary, % binding ratio
Experimental: as §1

[4] = biological target: T1, MICA on human tumor cells (A-375, A549, …); assay: flow cytometry on HCT-15 cells, Alexa-647 goat anti-human secondary, average fluorescence intensity
Experimental: (1) Tumor cells were diluted to a density of 2×10⁶/mL with PBS and then added into a 1.5 ml EP tube in a volume of 100 l/tube. 10 l/tube of goat serum was added into the EP tube; and blocking was conducted at 4° C. for 30 min. Antibody h5A1 (having a heavy chain sequence as set forth in SEQ ID NO: 11 and a light chain sequence as set forth in SEQ ID NO: 12), antibody h5A1002 (having a heavy chain sequence as set forth in SEQ ID NO: 13 and a light chain sequence as set forth in SEQ ID NO: 14), and control IgG1 (purchased from Biointron) were gradient-diluted (at a highest working concentration of 50 μg/ml, 10 gradients, diluted by 3 times for each gradient) and added. The tube was incubated at 4° C. for 30 min. 1 mL of PBS was added into the EP tube, and centrifugation was conducted 4° C. at a rate of 3,500 rpm for 5 min. The supernatant was removed. The EP tube was washed once with the PBS. The supernatant was removed after centrifugation. The cells were resuspended with PBS in a volume of 100 l/tube. An Alexa-647 labeled goat anti-human secondary antibody (purchased from Jackson lab) was added into the tube in a volume of 1 l/tube; and the plate was incubated in the dark at 4° C. for 30 min. The tube was washed twice with PBS, and the supernatant was removed after centrifugation. […]

[5] = biological target: T2, MICA protein (SPR analyte) (human, UniProt Q29983 24-308, limits assumed); assay: SPR, Biacore 8K, antibody captured on protein A chip, MICA as analyte
T2 construct: also called major histocompatibility complex class I chain related polypeptide A
T2 sequence: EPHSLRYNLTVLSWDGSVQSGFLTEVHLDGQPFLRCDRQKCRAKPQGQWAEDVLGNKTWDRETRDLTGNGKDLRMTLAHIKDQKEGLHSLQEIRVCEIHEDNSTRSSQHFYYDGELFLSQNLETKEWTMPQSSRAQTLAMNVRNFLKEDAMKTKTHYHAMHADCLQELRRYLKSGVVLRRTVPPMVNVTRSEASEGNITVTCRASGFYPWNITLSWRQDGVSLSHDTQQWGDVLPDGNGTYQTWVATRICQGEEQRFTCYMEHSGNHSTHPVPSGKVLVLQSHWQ
Experimental: In a Biacore 8K (Cytiva) system, the antibody was diluted to a concentration of 10 µg/mL with running buffer (HBS-EP), and the antibody was conjugated onto a protein A (Cytiva, 29127556) chip at a flow rate of […].
Kinetic and affinity data of binding of the maternal antibody h5A1 and the affinity maturation antibody h5A1002 and MICA were detected.

B1: affinity maturation antibody h5A1002 (antibody, V domains shown)
VH: QVQLQESGPGLVKPSETLSLTCTVSGFSLTTYGGHWIRQPPGKGLEWIGMIWTDGWTDYNAAFISRVTISVDTSKNQFSLKLSSVTAADTAVYYCARKGHGYYYAMDYWGQGTLVTVSS
VL: EIVLTQSPGTLSLSPGERATLSCTASSSVSSSYLHWYQQKPGQAPRLLIYSTSNLISGIPDRFSGSGSGTDFTLTISRLEPEDFAVYYCHQYHRSPFTFGQGTKLEIKR
notes: Human IgG1, kappa; also called h5A1002-hIgG1
In the case of B1, the “EC50 (read off the curve)” value [1] is reported as about 0.3 µg/mL, the “EC50 (read off the curve)” value [2] is reported as about 0.1 µg/mL and the “EC50 (read off the curve)” value [3] is reported as about 0.3 µg/mL. The “EC50 (read off the curve)” value [4] was about 1 µg/mL, the Kd [5] was 5.4 nM and the koff [5] was 0.000129 s⁻¹. It also gave a kon [5] of 23800 M⁻¹ s⁻¹.
